B1: iron-stressed induced protein A (IsiA) (natural protein)
chain: not shown
notes: IsiA, iron-stressed induced protein A, Synechocystis sp; PCC 6803; six trans-membrane helices; model rebuilt from subunit X of PDB 6NWA; Each IsiA protomer coordinates 17 chlorophylls and 4 carotenoids; 18 copies form the ring around the PSI trimer; also called IsiA protomer; IsiA monomer; source: endogenous, purified as PSI-IsiA supercomplex from Synechocystis sp; PCC 6803 grown with low iron …

Assays:
[1] = target: the molecule itself; test: cryo-EM structure; native PSI3-IsiA18 supercomplex co-purified from Synechocystis sp. PCC 6803 membranes in DDM; 30 mM Tricine-NaOH pH 8, 75 mM NaCl, 0.02% DDM; 1.5 mg chlorophyll/ml; vitrified on holey carbon grids; C3 symmetry expansion and multibody refinement
[2] = target: B1; test: as above; settings: both partners purified

Binder | stoichiometry N [1] | binding result [2]
B1 | 18 | 
PsaF subunit of photosystem I (natural protein, Synechocystis sp. PCC 6803, UniProt P29256 24-165, looked up, PsaF, PSI subunit, Synechocystis sp; PCC 6803; Stood in the assay as a subunit of PSI; also called PsaF/J; PsaJ/F; source: endogenous, purified as part of the PSI-IsiA supercomplex from Synechocystis sp; PCC 6803 (DDM-solubilised membranes, DEAE column, sucrose gradients)) DDFANLTPCSENPAYLAKSKNFLNTTNDPNSGKIRAERYASALCGPEGYPHLIVDGRFTHAGDFLIPSILFLYIAGWIGWVGRSYLIEIRESKNPEMQEVVINVPLAIKKMLGGFLWPLAAVGEYTSGKLVMKDSEIPTSPR |  | binds
MDGLKSFLSTAPVMIMALLTFTAGILIEFNRFYPDLLFHP (natural protein, Synechocystis sp. PCC 6803, UniProt Q55329 1-40, looked up, PsaJ, PSI subunit, Synechocystis sp; PCC 6803; Stood in the assay as a subunit of PSI; also called PsaF/J; PsaJ/F; source: endogenous, purified as part of the PSI-IsiA supercomplex from Synechocystis sp; PCC 6803 (DDM-solubilised membranes, DEAE column, sucrose gradients)) [PsaJ subunit of photosystem I] |  | binds

Source: publication PMC10397321, “Energetic robustness to large scale structural fluctuations in a photosynthetic supercomplex” (Nature Communications, 2023)
